The text below walks through data of patent US20160305947A1 (Merck Sharp & Dohme, published 2016).

For the experiment, the target named is T1, human PD-L1 (Programmed Cell Death 1 Ligand 1) (human, UniProt Q9NZQ7 19-290).
T1 construct: whole, on cells; The target is the endogenous protein in FFPE tumor tissue after antigen retrieval, not a recombinant construct; also called B7-H1; PDCD1L1
Nature of the experiment: IHC staining of FFPE human melanoma sections (chromogenic DAB and TSA fluorescence). As to the method:
After deparaffinization, antigens were retrieved by immersing the slides into Flex TRS (high pH) and allowing the temperature inside the PT Link to reach 97° C. for 20 minutes. Once this time elapsed, the chamber temperature was cooled to 75° C. Slides were removed from the PT Link and cooled to room temperature in Flex wash buffer.
Single parameter chromogenic immunohistochemical staining was performed using a mouse monoclonal anti-PD-L1 antibody (clone 22C3) and the brown DAB chromogen (FIG. 1, left column) Multiparametric fluorescence immunohistochemistry was performed using the protocol detailed in Example 1. In brief, formalin-fixed paraffin-embedded sections were stained using an anti-PD1 antibody (polyclonal goat anti-hPD-1, green) and an anti-PD-L1 antibody (clone 22C3, red). Representative patterns of PD-1 and PD-L1 are depicted in the images in the right-hand column. […] PD-L1 can be identified as being either (1) spatially apart from PD-1+ T cells (A, right); (2) associated with a minimal PD-1+ infiltrate (B, right); (3) expressed in the absence of concomitant PD-1+ T cells (C, right); or (4) strongly expressed in tight spatial proximity to PD-1+CD8 T cells (D, right).

T1 sequence (Q9NZQ7 19-290): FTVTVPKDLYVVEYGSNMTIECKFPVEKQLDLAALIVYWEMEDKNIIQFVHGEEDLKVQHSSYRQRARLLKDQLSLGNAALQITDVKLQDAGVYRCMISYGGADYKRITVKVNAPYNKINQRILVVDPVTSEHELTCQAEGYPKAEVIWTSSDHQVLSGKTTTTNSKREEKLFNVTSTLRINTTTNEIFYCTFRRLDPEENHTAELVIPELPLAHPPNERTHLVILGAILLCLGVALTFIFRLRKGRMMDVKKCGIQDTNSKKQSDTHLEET

B1: Mouse anti-human PD-L1 mAb (Clone 22C3) (antibody, mouse IgG1, kappa, V domains shown)
VH: QVHLQQSGAELAKPGASVKMSCKASGYTFTSYWIHWIKQRPGQGLEWIGYINPSSGYHEYNQKFIDKATLTADRSSSTAYMHLTSLTSEDSAVYYCARSGWLIHGDYYFDFWGQGTTLTVSS
VL: DIVMSQSPSSLAVSAGEKVTMTCKSSQSLLHTSTRKNYLAWYQQKPGQSPKLLIYWASTRESGVPDRFTGSGSGTDFTLTISSVQAEDLAVYYCKQSYDVVTFGAGTKLELKR
notes: Mouse IgG1, made in house, used at 2 ug/mL as the primary antibody in IHC; also called antibody 22C3; mouse monoclonal anti-PD-L1 antibody (clone 22C3)
Regarding B1, the binding result is reported as “binds”.
